Source: the supplement of paper PMC9170038

Test system: MS2 coat protein
Experiment: apparent KD of MS2 coat protein; designed switch direction (-1 OFF switch, 1 ON switch): -1; higher = weaker reporter binding
Method in brief: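 Normalised cluster fluorescence was curve-fitted, and each design's median over clusters is its apparent KD. Before this, SNAP-549-labelled MS2 coat protein was titrated from 0.7 or 1.5 nM, doubling to 3 µM, over RNA switches transcribed on Illumina chips by stalled E. coli RNA polymerase. Titrations had no input, 200 uM small-molecule ligand, or an oligonucleotide input, and steps lasted 0.8–1.5 h (lowest) to 10–20 min (highest).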

[1] = input ligand: microRNA oligo, concentration not stated
[2] = Eterna round: R95, input ligand: FMN 200 uM
[3] = Eterna round: R95, input ligand: microRNA oligo, concentration not stated
[4] = Eterna round: R95, input ligand: none

Row | Sequence | apparent KD of MS2 coat protein (input ligand: FMN 200 uM) [nM] | apparent KD of MS2 coat protein [1] [nM] | apparent KD of MS2 coat protein (input ligand: none) [nM] | apparent KD of MS2 coat protein [2] [nM] | apparent KD of MS2 coat protein [3] [nM] | apparent KD of MS2 coat protein [4] [nM]
1 | GGUCAGAUGGUAGGAUAUCCAUAUCGAGUGACCCUUUCAUAACAUGAGGAUCACCCAUGUCGGUGGGAGAAGGGCCGUACGGCG [salish99_ExNG02_R04_010] (Eterna round: R96, puzzle: Exclusion NG 2) | 43.9 | 32.8 | 41.7 |  |  | 
2 | GGUCAGAUGGUAGGAUAUUCAUAUCGAGUGACCCUUUCAUAACAUGAGGAUCACCCAUGUCGGUGGGAGAAGGGCCGUACGGCG [salish99_ExNG02_R04_014] (Eterna round: R96, puzzle: Exclusion NG 2) | 26.9 | 29.3 | 50.7 |  |  | 
3 | GGUCAUCAAGUCAGGAUAUCGUCAAAUCAAUCAGGCGAGAAGGGACAUGAGGAUCACCCAUGUCGACUCAUCAC [Ex4 #4] (Eterna round: R97, puzzle: Brourd's mod of Exclusion 4) | 117 |  | 31.2 |  |  | 
4 | GGUCCGAGUGUGAGGAUAUGCUGGUCCUUGGAUCAGCAGAAGGCACAUGAGGAUCACCCAUGUGAAGACGGACC [Mat - Exclusion 4 - Eli Mod - D30] (Eterna round: R97, puzzle: Brourd's mod of Exclusion 4) | 537 |  | 91.5 |  |  | 
5 | GGUCGUAUGAGUAGUCCUCAUUGAAGAGAUUGGUAAGAUACAUGAGGAUCACCCAUGUUUGAACAAGCUUUUGCUCU [JR_Sv3TOV2_Sub008] (Eterna round: R96, puzzle: Sensor v3, turn-off variant 2) | 159 | 54.3 | 118 |  |  | 
6 | GGUCGUAUGAGUAGUCCUCAUUGAAGAGAUUGGUAAGAUACAUGAGGAUCACCCAUGUUUGAACAAGCUUUUGCUCU [JR_Sv3TOV2_Sub008] (puzzle: Sensor v3, turn-off variant 2) |  |  |  | 96 | 41.9 | 120
7 | GGUGCGUAUGUGAGGAUAUGCUGGUCCUUGGAUCGGCAGAAGGUACAUGAGGAUCACCCAUGUGGUGUCGUUCC [salish99_Bmod_ex4_102] (puzzle: Brourd's mod of Exclusion 4) |  |  |  |  | 87 | 
8 | GGUGCGUUUGUGAGGAUAUGCUGGUCCUUGGAUCAGCAGAAGGCACAUGAGGAUCACCCAUGUGGUGUCCCUCC [salish99_Bmod_Ex4_040] (puzzle: Brourd's mod of Exclusion 4) |  |  |  |  | 154 | 
9 | GGUGCGUUUGUGAGGAUAUGCUGGUCCUUGGAUCAGCAGAAGGCACAUGAGGAUCACCCAUGUGGUGUCGGUCC [salish99_Bmod_Ex4_038] (puzzle: Brourd's mod of Exclusion 4) |  |  |  |  | 252 | 
10 | GGUGCGUUUGUGAGGAUAUGCUGGUCCUUGGGUCAGCAGAAGGCACAUGAGGAUCACCCAUGUGGUGUCGUACC [salish99_Bmod_Ex4_032] (puzzle: Brourd's mod of Exclusion 4) |  |  |  |  | 178 | 
11 | GGUGCUGGCGCGUCGGUGUUGGUGCAAUAAGCUUGUGAGACAUGAGGAUCACCCAUGUCCUCGUGGGCUCGUCUUGU [salish99_TOv2_r2_091] (puzzle: Sensor v3, turn-off variant 2) |  |  |  | 91.2 | 79.3 | 93.7
12 | GGUGGACAUGAGGAUCACCCAUGUGAGGAUAUCGGCUAUCUACUCGCUGACGGCUGCUCGAGAAGGCGCAUUGU [Exclusion 1 V90] (puzzle: Exclusion 1) |  |  |  |  | 44.8 | 
13 | GGUGGACAUGAGGAUCACCCAUGUGAGGAUAUCGGCUGGUACGUGGUGGCUGGCAUCUCGAGAAGGCACAUAGU [Exclusion 1 V66] (puzzle: Exclusion 1) |  |  |  |  | 83.6 | 
14 | GGUGGACAUGAGGAUCACCCAUGUGAGGAUAUCGGCUGGUACGUGUUGGCUGGCAUCUCGAGAAGGCACAUCGU [Exclusion 1 V64] (Eterna round: R96, puzzle: Exclusion 1) | 181 | 46 | 49 |  |  | 
15 | GGUGGACAUGAGGAUCACCCAUGUGAGGAUAUCGGCUGGUACGUGUUGGCUGGCAUCUCGAGAAGGCACAUCGU [Exclusion 1 V64] (puzzle: Exclusion 1) |  |  |  |  | 44.8 | 
16 | GGUGUUGAAGGAUAUACAUGAGGAUCACCCAUGUACCGCUCGGACAAGAUAUCAUUCAGUAGAAGGUCGGACCG [Eternabot (L2) Solution 11] (Eterna round: R97, puzzle: Exclusion 3) | 66.5 |  | 150 |  |  | 

Row | Sequence | apparent KD of MS2 coat protein (input ligand: FMN 200 uM) [nM] | apparent KD of MS2 coat protein [1] [nM] | apparent KD of MS2 coat protein (input ligand: none) [nM] | apparent KD of MS2 coat protein [2] [nM] | apparent KD of MS2 coat protein [3] [nM] | apparent KD of MS2 coat protein [4] [nM]
17 | GGUUGACAUGAGGAUCACCCAUGUGAGGAUAUGCGAGAGAAAAAAGUGAGGAAGAAAUGCAGAAGGCGCUGUCG [salish99-ex1_r3_009] (puzzle: Exclusion 1) |  |  |  | 127 | 81.5 | 433
18 | GGUUGGCGAGGAUAUACAUGAGGAUCACCCAUGUGAGAGAAAAAAGUGAGGAAGAACAGUAGAAGGCGCUGACG [salish99_ex3_r3_036] (puzzle: Exclusion 3) |  |  |  | 162 | 74.2 | 106
19 | GGUUGGCGAGGAUAUACAUGAGGAUCACCCAUGUGAGAGAAAAAAGUGAGGCAGAAAAGUAGAAGGCGCUGACG [salish99_ex3_r3_031] (puzzle: Exclusion 3) |  |  |  | 137 | 29.8 | 96.8
20 | GGUUGGCGAGGAUAUACAUGAGGAUCACCCAUGUGAGAGAAACAAGUGAGGAAGAAAAGUAGAAGGCGCUGACG [salish99_ex3_r3_023] (puzzle: Exclusion 3) |  |  |  | 112 | 88.1 | 37.1
21 | GGUUGGCGAGGAUAUACAUGAGGAUCACCCAUGUGAGAGAAUAAAGUGAGAAAGAAAAGUAGAAGGCGCUGACG [Mat - Exclusion 3 - Mod of Salish D49] (puzzle: Exclusion 3) |  |  |  | 728 | 56.9 | 43.3
22 | GGUUGGCGAGGAUAUACAUGAGGAUCACCCAUGUGAGAGAAUAAAGUGAGGAAGAAAAGUAGAAGGCGCUGACA [Mat - Exclusion 3 - Mod of Salish D8] (puzzle: Exclusion 3) |  |  |  | 154 | 42.1 | 40.7
23 | GGUUGUUGUUUCCGUUCUUACAUGAGGAUCACCCAUGUUUCUUGUCGUGCUCGCGUUGCUCGUCUGGCUGCCUGUUG [salish99_TOv1_r3_070] (puzzle: Sensor v3, turn-off variant 1) |  |  |  | 41.2 | 37.4 | 54.4
24 | GGUUGUUGUUUCCGUUCUUACAUGAGGAUCACCCAUGUUUCUUGUCGUGCUCGCGUUGCUCGUCUGUCUGUCUGUUG [salish99_TOv1_r3_072] (puzzle: Sensor v3, turn-off variant 1) |  |  |  | 55.7 | 36.2 | 63
25 | GGUUGUUUUUUCCGUUCUUACAUGAGGAUCACCCAUGUUUCUUGUCGUGCUCGCGUUGCUCGUCUGUCUGUCUGUUG [salish99_TOv1_r3_073] (puzzle: Sensor v3, turn-off variant 1) |  |  |  | 48.5 | 34.3 | 56
26 | GGUUUAGUAGAGGAUAUGUCACUGUCGCAGGAGACAGAAGGCUGCACAUGAGGAUCACCCAUGUCGGUAAUGAG [Eternabot (L1) Solution 89] (Eterna round: R97, puzzle: Exclusion 6) | 21.8 |  | 16.3 |  |  | 
27 | GUAAACGAAGAGGAUAUUUGAUAUCAUAGCUUCAAAGAAGGCUUCACAUGAGGAUCACCCAUGUGAUCUUCAAA [Mat - Exclusion 6 - JL Mod - D22] (Eterna round: R97, puzzle: Exclusion 6) | 142 |  | 20.7 |  |  | 
28 | GUAAACGAUCAGGAUAUAUCAAAUCAUAGCUUGAUAGAAGGGAUCACAUGAGGAUCACCCAUGUGAUCUUCUUA [Mat - Exclusion 6 - JL Mod - D36] (Eterna round: R97, puzzle: Exclusion 6) | 13 |  | 10.9 |  |  | 
29 | GUAAAGGGUGUCCUUAAAACAUGAGGAUCACCCAUGUGGACUAAGGAUAUCCAAAAUAAAGAUAAGGAGAAGGUAGUGGAAAGA [Usarqudi] (Eterna round: R96, puzzle: Exclusion NG 3) | 19.3 | 19.9 | 14 |  |  | 
30 | GUAAAGUGAGGAUAUGCUGGAGGUGUAUUCUACGUGUCGAAACAUGAGGAUCACCCAUGUAGAAGGCACGGGCG [Sozaquce] (puzzle: Exclusion 2) |  |  |  |  | 10 | 
31 | GUAACAUGCUGGUGAUCAUACAUGAGGAUCACCCAUGUAACAAGCUUUUUGUUCGUCUUAUAAGAUCACCAGCAUGU [Stov1/9-B2] (Eterna round: R97, puzzle: Sensor, turn-off variant 1) | 18.4 |  | 19.8 |  |  | 
